Experimental data from the Human Domainome abundance scans (Beltran et al. 2025).
± gives the uncertainty stated by the source.

B1: Proto-oncogene vav, residues 782 to 842; numbered along this chain, P15498 (parent)
chain: KYFGTAKARYDFCARDRSELSLKEGDIIKILNKKGQQGWWRGEIYGRVGWFPANYVEEDYS

Variants of: B1
Experiment: abundance fitness (aPCA) (normalised: wild type 0, dead -1); higher = more abundant; growth selection in yeast, the domain comes from the species named
Details: Homo sapiens

Variant	abundance fitness
KYFGTAKARYDFCFRDRSELSLKEGDIIKILNKKGQQGWWRGEIYGRVGWFPANYVEEDYS [A14F]	-0.804 ± 0.24
KYFGTAKARYDFCERDRSELSLKEGDIIKILNKKGQQGWWRGEIYGRVGWFPANYVEEDYS [A14E]	-0.873 ± 0.26
KYFGTAKARYDFCHRDRSELSLKEGDIIKILNKKGQQGWWRGEIYGRVGWFPANYVEEDYS [A14H]	-0.562 ± 0.23
KYFGTAKARYDFCCRDRSELSLKEGDIIKILNKKGQQGWWRGEIYGRVGWFPANYVEEDYS [A14C]	-0.83 ± 0.38
KYFGTAKANYDFCARDRSELSLKEGDIIKILNKKGQQGWWRGEIYGRVGWFPANYVEEDYS [R9N]	-0.282 ± 0.15
KYFGTAKAFYDFCARDRSELSLKEGDIIKILNKKGQQGWWRGEIYGRVGWFPANYVEEDYS [R9F]	0.05 ± 0.18
KYFGTAKAPYDFCARDRSELSLKEGDIIKILNKKGQQGWWRGEIYGRVGWFPANYVEEDYS [R9P]	-0.972 ± 0.3
KYFGTAKAHYDFCARDRSELSLKEGDIIKILNKKGQQGWWRGEIYGRVGWFPANYVEEDYS [R9H]	-0.505 ± 0.22
KYFGTAKAMYDFCARDRSELSLKEGDIIKILNKKGQQGWWRGEIYGRVGWFPANYVEEDYS [R9M]	-0.027 ± 0.081
KYFGTAKAKYDFCARDRSELSLKEGDIIKILNKKGQQGWWRGEIYGRVGWFPANYVEEDYS [R9K]	0.072 ± 0.097
KYFGTAKAGYDFCARDRSELSLKEGDIIKILNKKGQQGWWRGEIYGRVGWFPANYVEEDYS [R9G]	-0.75 ± 0.12
KYFGTAKAEYDFCARDRSELSLKEGDIIKILNKKGQQGWWRGEIYGRVGWFPANYVEEDYS [R9E]	-0.614 ± 0.25
KYFGTAKAIYDFCARDRSELSLKEGDIIKILNKKGQQGWWRGEIYGRVGWFPANYVEEDYS [R9I]	-0.296 ± 0.13
KYFGTAKATYDFCARDRSELSLKEGDIIKILNKKGQQGWWRGEIYGRVGWFPANYVEEDYS [R9T]	-0.086 ± 0.096
KYFGTAKAYYDFCARDRSELSLKEGDIIKILNKKGQQGWWRGEIYGRVGWFPANYVEEDYS [R9Y]	-0.821 ± 0.27
KYFGTAKAWYDFCARDRSELSLKEGDIIKILNKKGQQGWWRGEIYGRVGWFPANYVEEDYS [R9W]	-0.737 ± 0.2
KYFGTAKASYDFCARDRSELSLKEGDIIKILNKKGQQGWWRGEIYGRVGWFPANYVEEDYS [R9S]	-0.34 ± 0.088
KYFGTAKARYDGCARDRSELSLKEGDIIKILNKKGQQGWWRGEIYGRVGWFPANYVEEDYS [F12G]	-0.977 ± 0.16
KYFGTAKARYDSCARDRSELSLKEGDIIKILNKKGQQGWWRGEIYGRVGWFPANYVEEDYS [F12S]	-0.886 ± 0.2
KYFGTAKARYDKCARDRSELSLKEGDIIKILNKKGQQGWWRGEIYGRVGWFPANYVEEDYS [F12K]	-1.01 ± 0.44
KYFGTAKARYDWCARDRSELSLKEGDIIKILNKKGQQGWWRGEIYGRVGWFPANYVEEDYS [F12W]	-0.114 ± 0.075
KYFGTAKARYDQCARDRSELSLKEGDIIKILNKKGQQGWWRGEIYGRVGWFPANYVEEDYS [F12Q]	-0.553 ± 0.28

Variant	abundance fitness
KYFGTAKARYDHCARDRSELSLKEGDIIKILNKKGQQGWWRGEIYGRVGWFPANYVEEDYS [F12H]	-0.029 ± 0.44
KYFGTAKARYDICARDRSELSLKEGDIIKILNKKGQQGWWRGEIYGRVGWFPANYVEEDYS [F12I]	-0.536 ± 0.25
KYFGTAKARYDNCARDRSELSLKEGDIIKILNKKGQQGWWRGEIYGRVGWFPANYVEEDYS [F12N]	-0.671 ± 0.32
KYFGTAKARYDRCARDRSELSLKEGDIIKILNKKGQQGWWRGEIYGRVGWFPANYVEEDYS [F12R]	-0.365 ± 0.066
KYFGTAKARYDECARDRSELSLKEGDIIKILNKKGQQGWWRGEIYGRVGWFPANYVEEDYS [F12E]	-1.01 ± 0.29
KYFGTAKARYDPCARDRSELSLKEGDIIKILNKKGQQGWWRGEIYGRVGWFPANYVEEDYS [F12P]	-1.13 ± 0.38
KYFGTAKARYDMCARDRSELSLKEGDIIKILNKKGQQGWWRGEIYGRVGWFPANYVEEDYS [F12M]	-0.827 ± 0.28
KYFGTAKARYDLCARDRSELSLKEGDIIKILNKKGQQGWWRGEIYGRVGWFPANYVEEDYS [F12L]	-0.813 ± 0.15
KYFGTAKARYDTCARDRSELSLKEGDIIKILNKKGQQGWWRGEIYGRVGWFPANYVEEDYS [F12T]	-0.952 ± 0.43
KYFGTAKARYDCCARDRSELSLKEGDIIKILNKKGQQGWWRGEIYGRVGWFPANYVEEDYS [F12C]	-0.83 ± 0.37
KYFGTAKARYDVCARDRSELSLKEGDIIKILNKKGQQGWWRGEIYGRVGWFPANYVEEDYS [F12V]	-0.763 ± 0.13
KYFGTAKARYDACARDRSELSLKEGDIIKILNKKGQQGWWRGEIYGRVGWFPANYVEEDYS [F12A]	-0.537 ± 0.12
KYFGTAKARYYFCARDRSELSLKEGDIIKILNKKGQQGWWRGEIYGRVGWFPANYVEEDYS [D11Y]	-0.441 ± 0.28
KYFGTAKARYTFCARDRSELSLKEGDIIKILNKKGQQGWWRGEIYGRVGWFPANYVEEDYS [D11T]	-0.316 ± 0.1
KYFGTAKARYSFCARDRSELSLKEGDIIKILNKKGQQGWWRGEIYGRVGWFPANYVEEDYS [D11S]	-0.251 ± 0.084
KYFGTAKARYIFCARDRSELSLKEGDIIKILNKKGQQGWWRGEIYGRVGWFPANYVEEDYS [D11I]	-0.693 ± 0.49
KYFGTAKARYCFCARDRSELSLKEGDIIKILNKKGQQGWWRGEIYGRVGWFPANYVEEDYS [D11C]	-0.264 ± 0.15
KYFGTAKARYQFCARDRSELSLKEGDIIKILNKKGQQGWWRGEIYGRVGWFPANYVEEDYS [D11Q]	-0.363 ± 0.14
KYFGTAKARYVFCARDRSELSLKEGDIIKILNKKGQQGWWRGEIYGRVGWFPANYVEEDYS [D11V]	-0.587 ± 0.095
KYFGTAKARYNFCARDRSELSLKEGDIIKILNKKGQQGWWRGEIYGRVGWFPANYVEEDYS [D11N]	0.086 ± 0.07
KYFGTAKARYMFCARDRSELSLKEGDIIKILNKKGQQGWWRGEIYGRVGWFPANYVEEDYS [D11M]	-0.35 ± 0.091
KYFGTAKARYLFCARDRSELSLKEGDIIKILNKKGQQGWWRGEIYGRVGWFPANYVEEDYS [D11L]	-0.607 ± 0.074

Variant	abundance fitness
KYFGTAKARYHFCARDRSELSLKEGDIIKILNKKGQQGWWRGEIYGRVGWFPANYVEEDYS [D11H]	-0.503 ± 0.14
KYFGTAKARYKFCARDRSELSLKEGDIIKILNKKGQQGWWRGEIYGRVGWFPANYVEEDYS [D11K]	-0.362 ± 0.12
KYFGTAKARYGFCARDRSELSLKEGDIIKILNKKGQQGWWRGEIYGRVGWFPANYVEEDYS [D11G]	-0.258 ± 0.07
KYFGTAKARYAFCARDRSELSLKEGDIIKILNKKGQQGWWRGEIYGRVGWFPANYVEEDYS [D11A]	-0.103 ± 0.08
KYFGTAKARYPFCARDRSELSLKEGDIIKILNKKGQQGWWRGEIYGRVGWFPANYVEEDYS [D11P]	-0.284 ± 0.1
KYFGTAKARYWFCARDRSELSLKEGDIIKILNKKGQQGWWRGEIYGRVGWFPANYVEEDYS [D11W]	-0.715 ± 0.16
KYFGTAKARYEFCARDRSELSLKEGDIIKILNKKGQQGWWRGEIYGRVGWFPANYVEEDYS [D11E]	-0.159 ± 0.098
KYFGTAKARYFFCARDRSELSLKEGDIIKILNKKGQQGWWRGEIYGRVGWFPANYVEEDYS [D11F]	-0.901 ± 0.28
KYFGTAKARKDFCARDRSELSLKEGDIIKILNKKGQQGWWRGEIYGRVGWFPANYVEEDYS [Y10K]	0.047 ± 0.11
KYFGTAKARIDFCARDRSELSLKEGDIIKILNKKGQQGWWRGEIYGRVGWFPANYVEEDYS [Y10I]	-0.115 ± 0.1
KYFGTAKARSDFCARDRSELSLKEGDIIKILNKKGQQGWWRGEIYGRVGWFPANYVEEDYS [Y10S]	0.044 ± 0.059
KYFGTAKARMDFCARDRSELSLKEGDIIKILNKKGQQGWWRGEIYGRVGWFPANYVEEDYS [Y10M]	0.098 ± 0.11
KYFGTAKAREDFCARDRSELSLKEGDIIKILNKKGQQGWWRGEIYGRVGWFPANYVEEDYS [Y10E]	-0.13 ± 0.099
KYFGTAKARGDFCARDRSELSLKEGDIIKILNKKGQQGWWRGEIYGRVGWFPANYVEEDYS [Y10G]	-0.177 ± 0.05
KYFGTAKARNDFCARDRSELSLKEGDIIKILNKKGQQGWWRGEIYGRVGWFPANYVEEDYS [Y10N]	-0.393 ± 0.24
KYFGTAKARCDFCARDRSELSLKEGDIIKILNKKGQQGWWRGEIYGRVGWFPANYVEEDYS [Y10C]	-0.338 ± 0.1
KYFGTAKARLDFCARDRSELSLKEGDIIKILNKKGQQGWWRGEIYGRVGWFPANYVEEDYS [Y10L]	-0.122 ± 0.07
KYFGTAKARPDFCARDRSELSLKEGDIIKILNKKGQQGWWRGEIYGRVGWFPANYVEEDYS [Y10P]	-0.847 ± 0.18
KYFGTAKARDDFCARDRSELSLKEGDIIKILNKKGQQGWWRGEIYGRVGWFPANYVEEDYS [Y10D]	-0.305 ± 0.11
KYFGTAKARHDFCARDRSELSLKEGDIIKILNKKGQQGWWRGEIYGRVGWFPANYVEEDYS [Y10H]	0.079 ± 0.13
KYFGTAKARWDFCARDRSELSLKEGDIIKILNKKGQQGWWRGEIYGRVGWFPANYVEEDYS [Y10W]	-0.116 ± 0.087
KYFGTAKARQDFCARDRSELSLKEGDIIKILNKKGQQGWWRGEIYGRVGWFPANYVEEDYS [Y10Q]	0.107 ± 0.11

Variant	abundance fitness
KYFGTAKARVDFCARDRSELSLKEGDIIKILNKKGQQGWWRGEIYGRVGWFPANYVEEDYS [Y10V]	-0.184 ± 0.068
KYFGTAKARADFCARDRSELSLKEGDIIKILNKKGQQGWWRGEIYGRVGWFPANYVEEDYS [Y10A]	0.029 ± 0.064
KYFGTAKARYDFYARDRSELSLKEGDIIKILNKKGQQGWWRGEIYGRVGWFPANYVEEDYS [C13Y]	-0.198 ± 0.12
KYFGTAKARYDFIARDRSELSLKEGDIIKILNKKGQQGWWRGEIYGRVGWFPANYVEEDYS [C13I]	-0.108 ± 0.13
KYFGTAKARYDFGARDRSELSLKEGDIIKILNKKGQQGWWRGEIYGRVGWFPANYVEEDYS [C13G]	-0.285 ± 0.062
KYFGTAKARYDFHARDRSELSLKEGDIIKILNKKGQQGWWRGEIYGRVGWFPANYVEEDYS [C13H]	-0.131 ± 0.24
KYFGTAKARYDFKARDRSELSLKEGDIIKILNKKGQQGWWRGEIYGRVGWFPANYVEEDYS [C13K]	-0.201 ± 0.11
KYFGTAKARYDFAARDRSELSLKEGDIIKILNKKGQQGWWRGEIYGRVGWFPANYVEEDYS [C13A]	-0.063 ± 0.066
KYFGTAKARYDFDARDRSELSLKEGDIIKILNKKGQQGWWRGEIYGRVGWFPANYVEEDYS [C13D]	-0.28 ± 0.14
KYFGTAKARYDFTARDRSELSLKEGDIIKILNKKGQQGWWRGEIYGRVGWFPANYVEEDYS [C13T]	0.146 ± 0.1
KYFGTAKARYDFLARDRSELSLKEGDIIKILNKKGQQGWWRGEIYGRVGWFPANYVEEDYS [C13L]	-0.058 ± 0.057
KYFGTAKARYDFMARDRSELSLKEGDIIKILNKKGQQGWWRGEIYGRVGWFPANYVEEDYS [C13M]	-0.119 ± 0.086
KYFGTAKARYDFEARDRSELSLKEGDIIKILNKKGQQGWWRGEIYGRVGWFPANYVEEDYS [C13E]	0.12 ± 0.086
KYFGTAKARYDFQARDRSELSLKEGDIIKILNKKGQQGWWRGEIYGRVGWFPANYVEEDYS [C13Q]	0.098 ± 0.15
KYFGTAKARYDFPARDRSELSLKEGDIIKILNKKGQQGWWRGEIYGRVGWFPANYVEEDYS [C13P]	-0.178 ± 0.1
KYFGTAKARYDFFARDRSELSLKEGDIIKILNKKGQQGWWRGEIYGRVGWFPANYVEEDYS [C13F]	-0.006 ± 0.11
KYFGTAKARYDFSARDRSELSLKEGDIIKILNKKGQQGWWRGEIYGRVGWFPANYVEEDYS [C13S]	0.028 ± 0.06
KYFGTAKARYDFNARDRSELSLKEGDIIKILNKKGQQGWWRGEIYGRVGWFPANYVEEDYS [C13N]	0.123 ± 0.2
KYFGTAKARYDFVARDRSELSLKEGDIIKILNKKGQQGWWRGEIYGRVGWFPANYVEEDYS [C13V]	0.1 ± 0.054
KYFGTAKARYDFWARDRSELSLKEGDIIKILNKKGQQGWWRGEIYGRVGWFPANYVEEDYS [C13W]	-0.087 ± 0.089
KYFGTAKARYDFRARDRSELSLKEGDIIKILNKKGQQGWWRGEIYGRVGWFPANYVEEDYS [C13R]	0.025 ± 0.063
